Experimental findings from article PMC1635298 are described below.

What all share (test): EMSA
For orientation: Mobility shift assays separate free from complexed probe on a gel.

In series [1] the target is T1, Slx5 (Saccharomyces cerevisiae, UniProt P32828 1-619).
T1 sequence: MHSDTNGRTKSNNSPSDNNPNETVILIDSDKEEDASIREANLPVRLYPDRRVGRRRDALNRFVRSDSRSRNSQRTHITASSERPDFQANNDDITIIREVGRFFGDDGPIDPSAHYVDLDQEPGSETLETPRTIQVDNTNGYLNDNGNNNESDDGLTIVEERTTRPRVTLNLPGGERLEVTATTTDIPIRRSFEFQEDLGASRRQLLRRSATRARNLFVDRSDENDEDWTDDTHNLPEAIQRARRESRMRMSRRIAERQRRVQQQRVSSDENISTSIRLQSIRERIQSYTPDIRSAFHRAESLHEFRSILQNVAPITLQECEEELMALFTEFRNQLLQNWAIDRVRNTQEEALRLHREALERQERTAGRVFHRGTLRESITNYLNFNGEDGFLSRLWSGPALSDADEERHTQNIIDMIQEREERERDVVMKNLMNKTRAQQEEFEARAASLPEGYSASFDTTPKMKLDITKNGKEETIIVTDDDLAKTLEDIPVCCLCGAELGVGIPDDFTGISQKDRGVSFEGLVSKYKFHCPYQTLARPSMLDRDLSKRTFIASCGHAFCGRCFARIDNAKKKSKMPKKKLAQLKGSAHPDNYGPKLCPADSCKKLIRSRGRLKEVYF

For series [2], the target named is T2, Slx8 (Saccharomyces cerevisiae, UniProt P40072 1-274).
T2 sequence: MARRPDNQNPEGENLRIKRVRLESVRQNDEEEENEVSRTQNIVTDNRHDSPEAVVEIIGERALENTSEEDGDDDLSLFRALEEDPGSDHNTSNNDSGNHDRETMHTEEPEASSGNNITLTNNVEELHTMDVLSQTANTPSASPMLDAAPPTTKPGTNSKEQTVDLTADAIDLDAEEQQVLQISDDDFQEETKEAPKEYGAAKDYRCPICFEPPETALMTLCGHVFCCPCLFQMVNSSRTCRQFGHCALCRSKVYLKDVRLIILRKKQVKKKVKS

Series [3] addresses T3, Slx5-Slx8 complex, Slx8 subunit;Slx5 (Saccharomyces cerevisiae;Saccharomyces …, UniProt P40072;P32828 1-274;1-619, |).
T3 sequence 1: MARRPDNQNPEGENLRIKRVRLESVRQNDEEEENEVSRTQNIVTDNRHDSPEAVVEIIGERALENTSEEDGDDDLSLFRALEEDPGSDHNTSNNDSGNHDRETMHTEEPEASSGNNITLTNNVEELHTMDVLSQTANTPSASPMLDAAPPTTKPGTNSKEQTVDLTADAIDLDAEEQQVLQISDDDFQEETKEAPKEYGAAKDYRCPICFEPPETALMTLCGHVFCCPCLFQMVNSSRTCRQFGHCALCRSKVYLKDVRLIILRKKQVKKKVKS
T3 sequence 2: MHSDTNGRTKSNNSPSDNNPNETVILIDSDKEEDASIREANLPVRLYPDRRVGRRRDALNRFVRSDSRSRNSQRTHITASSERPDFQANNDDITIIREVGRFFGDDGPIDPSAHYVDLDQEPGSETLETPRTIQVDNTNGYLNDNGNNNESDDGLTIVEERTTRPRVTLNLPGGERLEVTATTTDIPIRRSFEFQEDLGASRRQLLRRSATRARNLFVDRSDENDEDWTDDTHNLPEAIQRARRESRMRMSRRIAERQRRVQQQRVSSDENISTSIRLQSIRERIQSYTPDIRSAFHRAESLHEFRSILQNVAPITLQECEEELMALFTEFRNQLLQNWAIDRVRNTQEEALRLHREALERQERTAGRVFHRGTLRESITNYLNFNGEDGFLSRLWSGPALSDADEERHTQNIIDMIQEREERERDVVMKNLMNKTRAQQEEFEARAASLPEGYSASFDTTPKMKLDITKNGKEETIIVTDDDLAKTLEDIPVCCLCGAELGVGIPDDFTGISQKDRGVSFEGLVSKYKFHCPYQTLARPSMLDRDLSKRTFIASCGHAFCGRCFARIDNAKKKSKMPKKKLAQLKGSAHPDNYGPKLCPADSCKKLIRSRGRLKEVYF

In series [4] the target is T3, Slx5-Slx8 complex, Slx8 subunit;Slx5. This is another data set of the same source.
Series [5] shares this target. This is another data set of the same source.
For series [6] the target is unchanged. This is another data set of the same source.
Series [7] shares this target. The source holds these as a separate data set.

Like-named read-outs stand apart in the source and are kept apart here.

B1: 45 bp dsDNA (1315/1316) (dsDNA)
DNA 1: GGGTCAACGTGGGCAAAGATGTCCTAGCAAGCCAGAATTCGGCAG
DNA 2: CTGCCGAATTCTGGCTTGCTAGGACATCTTTGCCCACGTTGACCC
As for B1, the binding result in series [1] is given as “no binding”. The “apparent K (half saturation)” value in series [2] was ~8 pmol (in reaction; standard volume 20 uL); in series [3], < 0.5 pmol (in reaction; standard volume 20 uL).

B2: 90 bp dsDNA (1317/1319) (dsDNA)
DNA 1: GATCCGAATTCTGGCTTGCTAGGACATCTTTGCCCACGTTGACCCGGGTTGGCGTTAGGAGATAGTCAGTTATAGCTGCGGCTGCTAAGG
DNA 2: GATCCCTTAGCAGCCGCAGCTATAACTGACTATCTCCTAACGCCAACCCGGGTCAACGTGGGCAAAGATGTCCTAGCAAGCCAGAATTCG
As for B2, in series [4], the binding result is recorded as “binds”.

B3: 30 bp dsDNA (1313/1314) (dsDNA)
DNA 1: TGGCGTTAGGAGATACCGATAAGCTTCGGC
DNA 2: GCCGAAGCTTATCGGTATCTCCTAACGCCA
Regarding B3, the binding result in series [5] is “binds”.
Take GACGCTGCCGAATTCTGGCGTTAGGAGATACCGATAAGCTTCGGCTTAA (ssDNA) [49 nt ssDNA (888)]: in series [6], the binding result is listed as “no binding”.

B4: 15 bp dsDNA (1312/1320) (dsDNA)
DNA 1: TATCTCCTAACGCCA
DNA 2: TGGCGTTAGGAGATA
As for B4, in series [7], the binding result was “no binding”.
